Tests used:
recombinant human TSLP [1] = biological target: T1, recombinant human TSLP (human, UniProt Q969D9 29-159); experiment: cell-based or functional assay
[2] = biological target: IL-4R on human donor PBMC (B-cells) (human, UniProt P24394 26-825); experiment: cell-based or functional assay
recombinant human TSLP [3] = biological target: T1, recombinant human TSLP; experiment: SPR; column 'SPR (Biophysical binding): TSLP (pM)'
Protocol: (§1) SPR studies were carried out on a Biacore 3000 instrument with a CM5 chip at 25° C. The running buffer comprised 25 mM Hepes, pH 7.5, 150 mM NaCl, 0.5 mg/ml BSA, 0.005% P20. Antibodies were captured via protein A using approximately a 1/50 dilution of each antibody in the running buffer and a 2-minute contact time at a 10 μl/min flow rate. Protein A was immobilized on a CM5 chip via standard amine coupling chemistry in 10 mM acetate pH 4.5. Approximately 800 RU of each antibody was captured. The surfaces were regenerated via a 10 mM glycine pH 1.5 between cycles. Between assays the chip was regenerated with a 2-minute pulse of 100 mM Phosphoric acid. Prior to setting up multicycle kinetic analysis analyte concentration was determined spectrophotometrically using an extinction coefficient of 72,880 M⁻¹ cm⁻¹ for IL4R and 18450 M⁻¹ cm⁻¹ for the TSLP proteins respectively. Analyte samples were prepared by diluting stocks into running buffer to a final concentration of 500 nM for the IL-4R and 25 nM for TSLP followed by serially diluting with a 2-fold series with an association time of 2.5 minutes at a 50 μl/min flow rate. Dissociation data was collected for a period of 1600 seconds. Raw data was analyzed using the Scrubber2 (Biologic Software, AU) program using a double referencing procedure where compound signal is corrected to a blank surface and a buffer injection over the captured antibody surface. Kinetic data was analyzed by fitting to a simple 1:1 binding model. […] The candidates are further described in Table 3.

recombinant human TSLP [4] = biological target: T1, recombinant human TSLP; experiment: SPR (Biacore 3000, CM5 chip, 25 C): complex captured via protein A, TSLP as analyte, 1:1 fit; column 'TSLP binding(pM)'
Protocol: as §1

IC50, inhibition of TSLP responses (TARC secretion) in human PBMCs (recombinant human TSLP [1]): 2.37 nM
IC50, CD23 upregulation on B cells of human PBMC in response to IL-4 (column 'Biological Assays: IL-4R (nM)') [2]: > 200 nM
Kd (recombinant human TSLP [3]): 0.0162 nM
Kd (recombinant human TSLP [4]): 0.0162 nM
B1: Candidate-42: Heavy and Light chain C-terminal TRAP: Dupilumab-YTE_Linker-GS4_TSLP TRAP 2 [4 x TRAP 2] (bispecific antibody, human IgG4 S228P, kappa)
heavy: EVQLVESGGGLEQPGGSLRLSCAGSGFTFRDYAMTWVRQAPGKGLEWVSSISGSGGNTYYADSVKGRFTISRDNSKNTLYLQMNSLRAEDTAVYYCAKDRLSITIRPRYYGLDVWGQGTTVTVSSASTKGPSVFPLAPCSRSTSESTAALGCLVKDYFPEPVTVSWNSGALTSGVHTFPAVLQSSGLYSLSSVVTVPSSSLGTKTYTCNVDHKPSNTKVDKRVESKYGPPCPPCPAPEFLGGPSVFLFPPKPKDTLYITREPEVTCVVVDVSQEDPEVQFNWYVDGVEVHNAKTKPREEQFNSTYRVVSVLTVLHQDWLNGKEYKCKVSNKGLPSSIEKTISKAKGQPREPQVYTLPPSQEEMTKNQVSLTCLVKGFYPSDIAVEWESNGQPENNYKTTPPVLDSDGSFFLYSRLTVDKSRWQEGNVFSCSVMHEALHNHYTQKSLSLSLGGGGGSGGGGSGGGGSGGGGSESGYAQNGDLEDAELDDYSFSCYSQLEVNGSQHSLTCAFEDPDVNITNLEFEICGALVEVKCLNFRKLQEIYFIETKKFLLIGKSNICVKVGEKSLTCKKIDLTTIVKPEAPFDLSVVYREGANDFVVTFNTSHLQKKYVKVLMHDVAYRQEKDENKWTHVNLSSTKLTLLQRKLQPAAMYEIKVRSIPDHYFKGFWSEWSPSYYFRTPEINNSSGEMDGGSGGSGGSGGSGGSGGSGGSGGSGGSGGSGGSGGSGGSGGSGGSGGSGGSGGSGGSGGSGAAEGVQIQIIYFNLETVQVTWNASKYSRTNLTFHYRFNGDEAYDQCTNYLLQEGHTSGCLLDAEQRDDILYFSIRNGTHPVFTASRWMVYYLKPSSPKHVRFSWHQDAVTVTCSDLSYGDLLYEVQYRSPFDTEWQSKQENTCNVTIEGLDAEKCYSFWVRVKAMEDVYGPDTYPSDWSEVTCWQRGEIRDACAETPTPPKPKLSK
light: DIVMTQSPLSLPVTPGEPASISCRSSQSLLYSIGYNYLDWYLQKSGQSPQLLIYLGSNRASGVPDRFSGSGSGTDFTLKISRVEAEDVGFYYCMQALQTPYTFGQGTKLEIKRTVAAPSVFIFPPSDEQLKSGTASVVCLLNNFYPREAKVQWKVDNALQSGNSQESVTEQDSKDSTYSLSSTLTLSKADYEKHKVYACEVTHQGLSSPVTKSFNRGECGGGGSGGGGSGGGGSGGGGSESGYAQNGDLEDAELDDYSFSCYSQLEVNGSQHSLTCAFEDPDVNITNLEFEICGALVEVKCLNFRKLQEIYFIETKKFLLIGKSNICVKVGEKSLTCKKIDLTTIVKPEAPFDLSVVYREGANDFVVTFNTSHLQKKYVKVLMHDVAYRQEKDENKWTHVNLSSTKLTLLQRKLQPAAMYEIKVRSIPDHYFKGFWSEWSPSYYFRTPEINNSSGEMDGGSGGSGGSGGSGGSGGSGGSGGSGGSGGSGGSGGSGGSGGSGGSGGSGGSGGSGGSGGSGAAEGVQIQIIYFNLETVQVTWNASKYSRTNLTFHYRFNGDEAYDQCTNYLLQEGHTSGCLLDAEQRDDILYFSIRNGTHPVFTASRWMVYYLKPSSPKHVRFSWHQDAVTVTCSDLSYGDLLYEVQYRSPFDTEWQSKQENTCNVTIEGLDAEKCYSFWVRVKAMEDVYGPDTYPSDWSEVTCWQRGEIRDACAETPTPPKPKLSK
notes: The chains here are built from the component entries
